Results: patent US12338277

Tests used:
Assay in all cases: cell-based or functional assay
[1] = molecular target: HIV-1 Env of pseudovirus 0815.v3.c3 (HIV-1)
[2] = molecular target: HIV-1 envelope of pseudovirus MS208.A1 (HIV-1)
[3] = molecular target: HIV-1 envelope of pseudovirus HIV-0013095-2.11 (HIV-1)
[4] = molecular target: HIV-1 Env of pseudovirus X1254_c3 (HIV-1)
[5] = molecular target: HIV-1 envelope of pseudovirus CNE5 (HIV-1)
[6] = molecular target: HIV-1 Env of pseudovirus T255-34 (HIV-1)
[7] = molecular target: HIV-1 envelope of pseudovirus BJOX009000.02.4 (HIV-1)
[8] = molecular target: Murine leukemia virus (MuLV) envelope on pseudovirus (Murine leukemia virus)
[9] = molecular target: HIV-1 envelope of pseudovirus 6545.v4.c1 (HIV-1)
[10] = molecular target: HIV-1 envelope of pseudovirus A07412M1.vrc12 (HIV-1)
[11] = molecular target: HIV-1 envelope of pseudovirus 6041.v3.c23 (HIV-1)
[12] = molecular target: HIV-1 envelope of pseudovirus T257-31 (HIV-1)
[13] = molecular target: HIV-1 Env of pseudovirus ZM233M.PB6 (HIV-1)
[14] = molecular target: HIV-1 Env of pseudovirus Ce0393_C3 (HIV-1)
[15] = molecular target: HIV-1 envelope of pseudovirus 3103.v3.c10 (HIV-1)
[16] = molecular target: HIV-1 envelope of pseudovirus CNE17 (HIV-1)
[17] = molecular target: HIV-1 envelope of pseudovirus ZM249M.PL1 (HIV-1)
[18] = molecular target: HIV-1 envelope of pseudovirus 6811.v7.c18 (HIV-1)
[19] = molecular target: HIV-1 envelope of pseudovirus SC422661.8 (HIV-1)
[20] = molecular target: HIV-1 envelope of pseudovirus QH0692.42 (HIV-1)
[21] = molecular target: HIV-1 envelope of pseudovirus ZM109F.PB4 (HIV-1)
[22] = molecular target: HIV-1 envelope of pseudovirus 0260.v5.c36 (HIV-1)
[23] = molecular target: HIV-1 envelope of pseudovirus HIV-16055-2.3 (HIV-1)
[24] = molecular target: HIV-1 envelope of pseudovirus Du172.17 (HIV-1)
[25] = molecular target: HIV-1 Env of pseudovirus TRJO4551.58 (HIV-1)
[26] = molecular target: HIV-1 Env of pseudovirus 211-9 (HIV-1)
[27] = molecular target: HIV-1 Env of pseudovirus MS208.A1 (HIV-1)
[28] = molecular target: HIV-1 envelope spike of pseudovirus SS1196.1 (HIV-1)
[29] = molecular target: HIV-1 Env of pseudovirus A07412M1.vrc12 (HIV-1)
[30] = molecular target: HIV-1 Env of pseudovirus 9004SS_A3_4 (HIV-1)
[31] = molecular target: HIV-1 envelope of pseudovirus 89-F1_2_25 (HIV-1)
[32] = molecular target: HIV-1 envelope of pseudovirus X1254_c3 (HIV-1)
[33] = molecular target: HIV-1 envelope of pseudovirus Q259.d2.17 (HIV-1)
[34] = molecular target: HIV-1 envelope of pseudovirus AC10.0.29 (HIV-1)
[35] = molecular target: HIV-1 envelope of pseudovirus PVO.4 (HIV-1)
[36] = molecular target: HIV-1 Env of pseudovirus Q23.17 (HIV-1)
[37] = molecular target: HIV-1 Env of pseudovirus BJOX028000.10.3 (HIV-1)
[38] = molecular target: HIV-1 envelope of pseudovirus ZM197M.PB7 (HIV-1)
[39] = molecular target: HIV-1 envelope spike of pseudovirus CAAN5342.A2 (HIV-1)
[40] = molecular target: HIV-1 Env of pseudovirus HIV-001428-2.42 (HIV-1)
[41] = molecular target: HIV-1 envelope of pseudovirus BJOX010000.06.2 (HIV-1)
[42] = molecular target: HIV-1 Env of pseudovirus 928-28 (HIV-1)
[43] = molecular target: HIV-1 envelope of pseudovirus THRO4156.18 (HIV-1)
[44] = molecular target: HIV-1 envelope of pseudovirus 3365.v2.c2 (HIV-1)
[45] = molecular target: HIV-1 envelope of pseudovirus BJOX025000.01.1 (HIV-1)
[46] = molecular target: HIV-1 Env of pseudovirus Ce703010054_2A2 (HIV-1)
[47] = molecular target: HIV-1 envelope of pseudovirus WEAU_d15_410_787 (HIV-1)
[48] = molecular target: HIV-1 envelope of pseudovirus Ce2010_F5 (HIV-1)
[49] = molecular target: HIV-1 envelope of pseudovirus 6540.v4.c1 (HIV-1)
[50] = molecular target: HIV-1 envelope of pseudovirus R2184.c04 (HIV-1)

Chain of 10-1074 (antibody) (VH): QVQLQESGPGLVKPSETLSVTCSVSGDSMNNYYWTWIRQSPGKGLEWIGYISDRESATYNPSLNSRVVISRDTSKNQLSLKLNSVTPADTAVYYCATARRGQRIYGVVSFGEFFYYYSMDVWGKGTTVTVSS
Chain of 10-1074 (antibody) (V domain): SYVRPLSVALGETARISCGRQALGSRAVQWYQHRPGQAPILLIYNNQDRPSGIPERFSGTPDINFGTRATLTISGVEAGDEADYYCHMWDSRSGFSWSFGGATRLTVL
Chain of 10-996 (antibody) (VH): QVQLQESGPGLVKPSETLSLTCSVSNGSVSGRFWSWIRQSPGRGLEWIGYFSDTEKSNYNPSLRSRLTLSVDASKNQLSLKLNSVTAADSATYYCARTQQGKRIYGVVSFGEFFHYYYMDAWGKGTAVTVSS
Chain of 10-996 (antibody) (VL): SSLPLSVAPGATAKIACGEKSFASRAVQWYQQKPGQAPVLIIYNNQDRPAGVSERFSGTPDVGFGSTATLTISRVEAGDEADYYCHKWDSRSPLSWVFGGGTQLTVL

Question: 10-996 (antibody) was tested. Which IC80 (TZM-bl neutralization) [1] did it give?
Answer: 0.251 µg/mL

Question: And the IC50 (TZM-bl neutralization) [2]?
Answer: > 50 µg/mL

Question: And the IC50 (TZM-bl neutralization) [3]?
Answer: 31.5 µg/mL

Question: And the IC80 (TZM-bl neutralization) [4]?
Answer: 0.42 µg/mL

Question: What about the IC50 (TZM-bl neutralization) [5] of the same substance?
Answer: > 50 µg/mL

Question: What about the IC80 (TZM-bl neutralization) [6] of the same substance?
Answer: > 50 µg/mL

Question: What about the IC50 (TZM-bl neutralization) [7] of the same substance?
Answer: > 50 µg/mL

Question: And the IC50 (TZM-bl neutralization assay) [8]?
Answer: > 40 µg/mL

Question: What about the IC80 (TZM-bl neutralization assay) [8] of the same substance?
Answer: > 40 µg/mL

Question: What about the IC50 (TZM-bl neutralization) [9] of the same substance?
Answer: > 50 µg/mL

Question: And the IC50 (TZM-bl neutralization) [10]?
Answer: 0.008 µg/mL

Question: And the IC50 (TZM-bl neutralization) [11]?
Answer: > 50 µg/mL

Question: And the IC50 (TZM-bl neutralization) [12]?
Answer: > 50 µg/mL

Question: And the IC80 (TZM-bl neutralization) [13]?
Answer: 4.52 µg/mL

Question: And the IC80 (TZM-bl neutralization) [14]?
Answer: > 50 µg/mL

Question: What about the IC50 (TZM-bl neutralization) [15] of the same substance?
Answer: 0.053 µg/mL

Question: What about the IC50 (TZM-bl neutralization) [16] of the same substance?
Answer: 4.04 µg/mL

Question: What about the IC50 (TZM-bl neutralization) [17] of the same substance?
Answer: > 50 µg/mL

Question: And the IC50 (TZM-bl neutralization) [18]?
Answer: 0.001 µg/mL

Question: And the IC50 (TZM-bl neutralization) [19]?
Answer: 0.173 µg/mL

Question: And the IC50 (TZM-bl neutralization) [20]?
Answer: 0.396 µg/mL

Question: And the IC50 (TZM-bl neutralization) [21]?
Answer: > 50 µg/mL

Question: What about the IC50 (TZM-bl neutralization) [22] of the same substance?
Answer: 0.16 µg/mL

Question: What about the IC50 (TZM-bl neutralization) [23] of the same substance?
Answer: > 50 µg/mL

Question: What about the IC50 (TZM-bl neutralization) [24] of the same substance?
Answer: 0.173 µg/mL

Question: And the IC80 (TZM-bl neutralization) [25]?
Answer: 7.27 µg/mL

Question: What about the IC80 (TZM-bl neutralization) [26] of the same substance?
Answer: 3.85 µg/mL

Question: What about the IC80 (TZM-bl neutralization) [27] of the same substance?
Answer: > 50 µg/mL

Question: And the IC50 (TZM-bl neutralization assay) [28]?
Answer: 0.007 µg/mL

Question: And the IC80 (TZM-bl neutralization assay) [28]?
Answer: 0.04 µg/mL

Question: What about the IC80 (TZM-bl neutralization) [29] of the same substance?
Answer: 0.07 µg/mL

Question: What about the IC80 (TZM-bl neutralization) [30] of the same substance?
Answer: 0.05 µg/mL

Question: And the IC50 (TZM-bl neutralization) [31]?
Answer: > 50 µg/mL

Question: And the IC50 (TZM-bl neutralization) [32]?
Answer: 0.121 µg/mL

Question: What about the IC50 (TZM-bl neutralization) [33] of the same substance?
Answer: > 50 µg/mL

Question: What about the IC50 (TZM-bl neutralization) [34] of the same substance?
Answer: 0.067 µg/mL

Question: What about the IC50 (TZM-bl neutralization) [35] of the same substance?
Answer: 0.186 µg/mL

Question: And the IC80 (TZM-bl neutralization) [36]?
Answer: 0.03 µg/mL

Question: What about the IC80 (TZM-bl neutralization) [37] of the same substance?
Answer: > 50 µg/mL

Question: And the IC50 (TZM-bl neutralization) [38]?
Answer: > 50 µg/mL

Question: And the IC50 (TZM-bl neutralization assay) [39]?
Answer: 0.007 µg/mL

Question: What about the IC80 (TZM-bl neutralization assay) [39] of the same substance?
Answer: 0.06 µg/mL

Question: What about the IC80 (TZM-bl neutralization) [40] of the same substance?
Answer: 0.204 µg/mL

Question: And the IC50 (TZM-bl neutralization) [41]?
Answer: > 50 µg/mL

Question: What about the IC80 (TZM-bl neutralization) [42] of the same substance?
Answer: 7.15 µg/mL

Question: And the IC50 (TZM-bl neutralization) [43]?
Answer: > 50 µg/mL

Question: What about the IC50 (TZM-bl neutralization) [44] of the same substance?
Answer: 0.286 µg/mL

Question: And the IC50 (TZM-bl neutralization) [45]?
Answer: > 50 µg/mL

Question: What about the IC80 (TZM-bl neutralization) [46] of the same substance?
Answer: > 50 µg/mL

Question: And the IC50 (TZM-bl neutralization) [47]?
Answer: 0.147 µg/mL

Question: What about the IC50 (TZM-bl neutralization) [48] of the same substance?
Answer: > 50 µg/mL

Question: And the IC50 (TZM-bl neutralization) [49]?
Answer: > 50 µg/mL

Question: And the IC50 (TZM-bl neutralization) [50]?
Answer: > 50 µg/mL

Question: Which results are given for 10-1074 (antibody)?
Answer: IC80 (TZM-bl neutralization) [1]: 0.138 µg/mL; IC50 (TZM-bl neutralization) [2]: > 50 µg/mL; IC50 (TZM-bl neutralization) [3]: > 50 µg/mL; IC80 (TZM-bl neutralization) [4]: 0.297 µg/mL; IC50 (TZM-bl neutralization) [5]: > 50 µg/mL; IC80 (TZM-bl neutralization) [6]: > 50 µg/mL; IC50 (TZM-bl neutralization) [7]: > 50 µg/mL; IC50 (TZM-bl neutralization assay) [8]: > 40 µg/mL; IC80 (TZM-bl neutralization assay) [8]: > 40 µg/mL; IC50 (TZM-bl neutralization) [9]: > 50 µg/mL; IC50 (TZM-bl neutralization) [10]: < 0.001 µg/mL; IC50 (TZM-bl neutralization) [11]: > 50 µg/mL; IC50 (TZM-bl neutralization) [12]: > 50 µg/mL; IC80 (TZM-bl neutralization) [13]: 0.349 µg/mL; IC80 (TZM-bl neutralization) [14]: > 50 µg/mL; IC50 (TZM-bl neutralization) [15]: 0.037 µg/mL; IC50 (TZM-bl neutralization) [16]: 2.69 µg/mL; IC50 (TZM-bl neutralization) [17]: > 50 µg/mL; IC50 (TZM-bl neutralization) [18]: 0.002 µg/mL; IC50 (TZM-bl neutralization) [19]: 0.091 µg/mL; IC50 (TZM-bl neutralization) [20]: 0.191 µg/mL; IC50 (TZM-bl neutralization) [21]: > 50 µg/mL; IC50 (TZM-bl neutralization) [22]: 0.099 µg/mL; IC50 (TZM-bl neutralization) [23]: > 50 µg/mL; IC50 (TZM-bl neutralization) [24]: 0.121 µg/mL; IC80 (TZM-bl neutralization) [25]: 0.634 µg/mL; IC80 (TZM-bl neutralization) [26]: 0.425 µg/mL; IC80 (TZM-bl neutralization) [27]: > 50 µg/mL; IC50 (TZM-bl neutralization assay) [28]: 0.01 µg/mL; IC80 (TZM-bl neutralization assay) [28]: 0.127 µg/mL; IC80 (TZM-bl neutralization) [29]: 0.048 µg/mL; IC80 (TZM-bl neutralization) [30]: 0.03 µg/mL; IC50 (TZM-bl neutralization) [31]: > 50 µg/mL; IC50 (TZM-bl neutralization) [32]: 0.089 µg/mL; IC50 (TZM-bl neutralization) [33]: > 50 µg/mL; IC50 (TZM-bl neutralization) [34]: 0.022 µg/mL; IC50 (TZM-bl neutralization) [35]: 0.074 µg/mL; IC80 (TZM-bl neutralization) [36]: 0.021 µg/mL; IC80 (TZM-bl neutralization) [37]: > 50 µg/mL; IC50 (TZM-bl neutralization) [38]: > 50 µg/mL; IC50 (TZM-bl neutralization assay) [39]: 0.007 µg/mL; IC80 (TZM-bl neutralization assay) [39]: 0.044 µg/mL; IC80 (TZM-bl neutralization) [40]: 0.261 µg/mL; IC50 (TZM-bl neutralization) [41]: > 50 µg/mL; IC80 (TZM-bl neutralization) [42]: 4.7 µg/mL; IC50 (TZM-bl neutralization) [43]: > 50 µg/mL; IC50 (TZM-bl neutralization) [44]: 0.131 µg/mL; IC50 (TZM-bl neutralization) [45]: > 50 µg/mL; IC80 (TZM-bl neutralization) [46]: > 50 µg/mL; IC50 (TZM-bl neutralization) [47]: 0.104 µg/mL; IC50 (TZM-bl neutralization) [48]: > 50 µg/mL; IC50 (TZM-bl neutralization) [49]: > 50 µg/mL; IC50 (TZM-bl neutralization) [50]: > 50 µg/mL
